Source: article PMC7532178, “Interaction of protocadherin-15 with the scaffold protein whirlin supports its anchoring of hair-bundle lateral links in cochlear hair cells” (Scientific Reports, 2020)
Blank lines part the entries; values can stand above or below the molecule they belong to. No end group written: not given here. *: point of attachment. Biotin = O=C1N[C@H]2[C@H](CS[C@H]2CCCCC(=O)*)N1; TTDS = trioxatridecan-succinamic acid spacer

How the values were obtained:
[1] = target: PCDH15-CD1 C-terminal peptide (biotin-TTDS-…) (mouse); experiment: SPR; harmonin fragments or full-length harmonin-a1 with C-terminal peptides; Fig. S10 and data not shown
[2] = target: PCDH15-CD2 C-terminal peptide (biotin-TTDS-…) (mouse); experiment: as above
[3] = target: PCDH15-CD3 C-terminal peptide (biotin-TTDS-…) (mouse); experiment: as above
[4] = target: T1, PCDH15-CD1 C-terminal peptide (biotin-TTDS-GIDVQPHSQSTSL) (mouse); experiment: as above; details: both partners purified
T1 construct: C-terminal 13 aa of protocadherin-15 isoform CD1, including the PBM; source: synthetic peptide (Eurogentec); not shown: biotin, N-terminal, kept
T1 peptide: {Biotin-TTDS}-GIDVQPHSQSTSL

[5] = target: T2, PCDH15-CD2 C-terminal peptide (biotin-TTDS-GANSEQYNTAL) (mouse); experiment: as above; details: both partners purified
T2 construct: C-terminal 11 aa of protocadherin-15 isoform CD2, including the PBM; source: synthetic peptide (Eurogentec); not shown: biotin, N-terminal, kept
T2 peptide: {Biotin-TTDS}-GANSEQYNTAL

[6] = target: T3, PCDH15-CD3 C-terminal peptide (biotin-TTDS-MGPWNSLHIPMTKL) (mouse); experiment: as above; details: both partners purified
T3 construct: C-terminal 14 aa of protocadherin-15 isoform CD3, including the PBM; source: synthetic peptide (Eurogentec); not shown: biotin, N-terminal, kept
T3 peptide: {Biotin-TTDS}-MGPWNSLHIPMTKL

[7] = target: T4, whirlin-NTR-PDZ1-Hp1 (aa residues 2-265) (mouse, UniProt Q80VW5-1 2-265); experiment: SPR; ProteOn XPR 36; N-terminally biotinylated peptides captured on a Neutravidin NLC sensor chip, whirlin fragments flowed as analytes at 20 μL/min for 2 min; 250 mM NaCl, 50 mM Tris pH 7.5, 0.5 mM TCEP; steady-state fit Req = (Rmax*C)/(Kd+C); mean of three experiments; Figure 4B shows the responses at 10 μM; details: both partners purified
T4 construct: extra 7 aa at the N-terminus of all recombinant proteins of the study; whirlin (long isoform, L-whirlin), residues 2-265: NTR (with HHD1), PDZ1 and hairpin Hp1; The methods call the 2-265 construct whirlin-NTR-PDZ1; also called NTR-PDZ1-Hp1 whirlin fragment; Nter-PDZ1-Hp1; source: E. coli BL21 (DE3) codonPlus-RIPL, purified (Glutathione Sepharose 4B, GST removed by TEV proteinase, SEC)
T4 sequence: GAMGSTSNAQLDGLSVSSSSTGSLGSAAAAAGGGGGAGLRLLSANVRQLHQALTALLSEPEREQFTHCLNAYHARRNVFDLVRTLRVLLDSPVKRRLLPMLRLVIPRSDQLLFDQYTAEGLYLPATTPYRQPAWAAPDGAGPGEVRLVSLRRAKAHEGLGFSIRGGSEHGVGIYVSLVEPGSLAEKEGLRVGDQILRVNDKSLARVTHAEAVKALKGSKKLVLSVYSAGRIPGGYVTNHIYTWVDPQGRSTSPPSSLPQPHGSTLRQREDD

[8] = target: T4, whirlin-NTR-PDZ1-Hp1 (aa residues 2-265); experiment: as above; details: both partners purified; remark: listed apart in the source
[9] = target: T5, whirlin PDZ1-Hp (aa residues 137-246) (mouse, UniProt Q80VW5-1 137-246); experiment: as above; details: both partners purified
T5 construct: extra 7 aa at the N-terminus of all recombinant proteins of the study; whirlin, residues 137-246: PDZ1 with its hairpin extension Hp1; also called PDZ1 + Hp1; whirlin PDZ1-Hp1 fragment
T5 sequence: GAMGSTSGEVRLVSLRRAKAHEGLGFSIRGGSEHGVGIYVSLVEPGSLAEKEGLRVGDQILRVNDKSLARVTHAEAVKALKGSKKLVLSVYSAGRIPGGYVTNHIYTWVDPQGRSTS

[10] = target: T6, whirlin-PDZ1 (aa residues 137-228) (mouse, UniProt Q80VW5-1 137-228); experiment: as above; details: both partners purified
T6 construct: extra 7 aa at the N-terminus of all recombinant proteins of the study; whirlin, residues 137-228: PDZ1 domain; also called whirlin PDZ1 domain alone; source: E. coli BL21 (DE3) codonPlus-RIPL, purified (Glutathione Sepharose 4B, GST removed by TEV proteinase, SEC)
T6 sequence: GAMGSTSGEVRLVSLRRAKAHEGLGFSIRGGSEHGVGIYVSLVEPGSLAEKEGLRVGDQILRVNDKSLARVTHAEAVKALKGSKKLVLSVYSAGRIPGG

[11] = target: T7, whirlin-PDZ2 (aa residues 272-368) (mouse, UniProt Q80VW5-1 272-368); experiment: as above; details: both partners purified
T7 construct: extra 7 aa at the N-terminus of all recombinant proteins of the study; whirlin, residues 272-368: PDZ2 domain; source: E. coli BL21 (DE3) codonPlus-RIPL, purified (Glutathione Sepharose 4B, GST removed by TEV proteinase, SEC)
T7 sequence: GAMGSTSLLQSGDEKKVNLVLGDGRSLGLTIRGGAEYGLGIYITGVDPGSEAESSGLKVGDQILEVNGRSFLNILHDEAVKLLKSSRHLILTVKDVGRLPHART

[12] = target: T8, whirlin-PDZ3 (aa residues 821-915) (mouse, UniProt Q80VW5-1 821-915); experiment: as above; details: both partners purified
T8 construct: extra 7 aa at the N-terminus of all recombinant proteins of the study; whirlin, residues 821-915: PDZ3 domain, common to L- and S-whirlin; also called whirlin PDZ3 domain
T8 sequence: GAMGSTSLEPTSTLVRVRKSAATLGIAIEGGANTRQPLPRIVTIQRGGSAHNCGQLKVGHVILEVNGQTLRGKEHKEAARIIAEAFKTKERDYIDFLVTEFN

[13] = target: T9, whirlin-HHD1 (aa residues 30-121) (mouse, UniProt Q80VW5-1 30-121); experiment: as above; details: both partners purified
T9 construct: extra 7 aa at the N-terminus of all recombinant proteins of the study; whirlin, residues 30-121: harmonin-homology domain 1 (HHD1); also called HHD1 domain alone; source: E. coli BL21 (DE3) codonPlus-RIPL, purified (Glutathione Sepharose 4B, GST removed by TEV proteinase, SEC)
T9 sequence: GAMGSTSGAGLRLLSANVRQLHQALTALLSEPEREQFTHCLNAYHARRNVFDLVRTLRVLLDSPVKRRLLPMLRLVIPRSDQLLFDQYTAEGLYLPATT

[14] = target: T10, whirlin-NTR (aa residues 2-147) (mouse, UniProt Q80VW5-1 2-147); experiment: as above; details: both partners purified
T10 construct: extra 7 aa at the N-terminus of all recombinant proteins of the study; also called entire NTR of whirlin (containing the HHD1 domain); source: E. coli BL21 (DE3) codonPlus-RIPL, purified (Glutathione Sepharose 4B, GST removed by TEV proteinase, SEC)
T10 sequence: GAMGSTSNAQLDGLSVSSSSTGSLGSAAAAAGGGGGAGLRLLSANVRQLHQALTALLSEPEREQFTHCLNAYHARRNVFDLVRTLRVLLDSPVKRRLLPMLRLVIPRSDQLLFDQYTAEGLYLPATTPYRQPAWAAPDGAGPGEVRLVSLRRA

[15] = target: T11, CDH23 C-terminal peptide (Mus musculus, UniProt Q99PF4)
T11 chain: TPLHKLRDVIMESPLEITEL

Kd [1]: > 200 µM
Kd [2]: > 200 µM
Kd [3]: > 200 µM
Molecule: PDZ domains of harmonin in tandem association

Kd [4]: > 200 µM
Kd [5]: > 200 µM
Kd [6]: > 200 µM
B1: harmonin-PDZ3 (aa residues 738-849) (domain or fragment)
chain: DPYSMFSPEQIAGKDVRLLRIKKEGSLDLALEGGVDSPVGKVVVSAVYEGGAAERHGGVVKGDEIMAINGKIVTDYTLAEAEAALQKAWNQGGDWIDLVVAVCPPKEYDDEL

Kd [7]: ~20 µM
Kd [8]: 11.3 µM
Kd [9]: 64 µM
Kd [10]: 141 µM
Kd [11]: > 1000 µM
Kd [12]: 4.3 µM
Kd [13]: > 1000 µM
Kd [14]: > 1000 µM
B2: CDH23 C-terminal peptide (biotin-TTDS-VIMESPLEITEL) (peptide)
peptide: {Biotin-TTDS}-VIMESPLEITEL
notes: C-terminal residues of cadherin-23, including the PBM; source: synthetic peptide (Eurogentec); not shown: biotin, N-terminal, kept

Kd [15]: ~4 µM
B3: whirlin PDZ3 (protein)
chain: TSTLVRVRKSAATLGIAIEGGANTRQPLPRIVTIQRGGSAHNCGQLKVGHVILEVNGQTLRGKEHKEAARIIAEAFKTKERDYIDFLVTE

Kd [4]: > 200 µM
Kd [5]: > 200 µM
Kd [6]: > 200 µM
B4: full-length harmonin-a1 (natural protein)
chain: MDRKVAREFRHKVDFLIENDAEKDYLYDVLRMYHQTMDVAVLVGDLKLVINEPNRLPLFDAIRPLIPLKHQVEYDQLTPRRSRKLKEVRLDRLHPEGLGLSVRGGLEFGCGLFISHLIKGGQADSVGLQVGDEIVRINGYSISSCTHEEVINLIRTKKTVSIKVRHIGLIPVKSSPEESLKWQYVDQFVSESGGVRGGLGSPGNRTTKEKKVFISLVGSRGLGCSISSGPIQKPGIFVSHVKPGSLSAEVGLETGDQIVEVNGIDFTNLDHKEAVNVLKSSRSLTISIVAGAGRELFMTDRERLEEARQRELQRQELLMQKRLAMESNKILQEQQEMERQRRKEIAQKAAEENERYRKEMEQISEEEEKFKKQWEEDWGSKEQLILPKTITAEVHPVPLRKPKSFGWFYRYDGKFPTIRKKAKEKKKAKYDSLQDLRKNKKELEFEQKLYKEKEEMLEKEKQLKINRLAQEVSETEREDLEESEKTQYWVERLCQTRLEQISSAENEIPEMTTGPPPPPPSVSPLAPPLRRFAGGIHLHTTDLDDIPLDMFYYPPKTPSALPVMPHPPSVNSPSKVPAPPVLPSSGHVSSSSSPWVQRTPPPIPIPPPPSIPTQDLTPTRPLPSALEEALGNHPFRTGDPGHPADDWEANTHSGKPSSSPTTERSFPPAPKTFCPSPQPPRGPGVSTISKPVMVHQEHNFVYRPAVKSEVLPQEMLKRMVVYQTAFRQDFRKYEEGFDPYSMFSPEQIAGKDVRLLRIKKEGSLDLALEGGVDSPVGKVVVSAVYEGGAAERHGGVVKGDEIMAINGKIVTDYTLAEAEAALQKAWNQGGDWIDLVVAVCPPKEYDDELSSLPSSAAESPQLARKQLEAYEPVCRHGFFLQLEPTNLLLKSRERNQTDPSWRPASSAPSP
